Experimental data published in patent US20080242587A1.

Legend:
[1] = target: Ang2 (produced from CHO cell) (UniProt O15123); assay: ELISA titration, Ang2 coated, anti-human Fc-HRP
[2] = target: VEGF-A165 (produced from CHO cell) (UniProt P15692); assay: ELISA titration (0-3 nM), VEGF-A coated, anti-human Fc-HRP
Chain of UniProt P15692 (P15692 other isoform, or with tags, fused parts or gaps limits assumed): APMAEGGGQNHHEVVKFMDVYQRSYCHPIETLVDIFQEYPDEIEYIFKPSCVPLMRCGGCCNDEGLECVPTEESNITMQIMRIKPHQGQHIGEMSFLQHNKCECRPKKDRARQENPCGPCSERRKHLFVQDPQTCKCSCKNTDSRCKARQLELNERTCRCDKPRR

Chain of UniProt O15123 (O15123 19-496 limits assumed): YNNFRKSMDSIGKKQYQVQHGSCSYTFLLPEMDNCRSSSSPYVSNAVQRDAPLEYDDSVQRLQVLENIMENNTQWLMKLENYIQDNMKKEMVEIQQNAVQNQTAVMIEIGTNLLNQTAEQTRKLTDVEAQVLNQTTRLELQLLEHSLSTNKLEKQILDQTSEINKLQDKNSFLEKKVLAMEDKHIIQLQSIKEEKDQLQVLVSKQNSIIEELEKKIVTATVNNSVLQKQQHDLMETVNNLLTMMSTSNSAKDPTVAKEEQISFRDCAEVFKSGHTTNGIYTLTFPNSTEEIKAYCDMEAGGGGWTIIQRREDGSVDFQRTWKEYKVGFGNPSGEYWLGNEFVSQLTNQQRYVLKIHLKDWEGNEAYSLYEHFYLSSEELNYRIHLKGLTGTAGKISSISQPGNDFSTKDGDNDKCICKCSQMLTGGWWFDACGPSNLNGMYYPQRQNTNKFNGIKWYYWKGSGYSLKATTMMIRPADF

Kd [1] [nM] | Kd [2] [pM] | Substance
50 | – | Tie2-Fc (Fc fusion)
– | 1 | VEGF-trap (Fc fusion)
